From article PMC4385932, “A transgenic mouse model to inducibly target prosurvival Bcl2 proteins with selective BH3 peptides in vivo” (Cell Death & Disease, 2015) come the findings set out here.

This assay concerns the target T1, Bcl-xL (UniProt Q07817-1 1-233).
T1 construct: Bcl-xL, prosurvival Bcl-2 family protein
As to the kind of experiment: SPR; no format or conditions told.

T1 sequence (Q07817 whole entry): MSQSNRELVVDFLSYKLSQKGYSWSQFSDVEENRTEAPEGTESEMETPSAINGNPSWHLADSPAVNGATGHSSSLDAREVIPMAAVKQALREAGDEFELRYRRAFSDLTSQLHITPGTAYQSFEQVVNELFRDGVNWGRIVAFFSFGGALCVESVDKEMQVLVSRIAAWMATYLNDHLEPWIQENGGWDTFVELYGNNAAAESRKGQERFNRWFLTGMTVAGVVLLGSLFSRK

B1: BimSBad^mut (BimSBad with the Bad BH3 residue F121 mutated to alanine) (ligand)
chain: MAKQPSDVSSECDREGRQLQPAERPPQLRPGAPTSLQTEPQASMRQAEPANLWAAQRYGRELRRMSDEAVDSFKKGVFLNNYQAAEDHPRMVILRLLRYIVRLVWRMH
modifications: N-terminal FLAG tag left out. Same conventional swap limits and species assumption as m1.
Consider B1, for which the dissociation constant Kd is 8.5 nM. That is a single-digit nanomolar value.

B2: BimSBad (BimS BH3-only protein in which the native BH3 sequence is replaced by the BH3 domain of Bad) (ligand)
chain: MAKQPSDVSSECDREGRQLQPAERPPQLRPGAPTSLQTEPQASMRQAEPANLWAAQRYGRELRRMSDEFVDSFKKGVFLNNYQAAEDHPRMVILRLLRYIVRLVWRMH
modifications: N-terminal FLAG tag left out. BimS = BimEL lacking 42-131. Swap limits are only in Figure 1a; the conventional 26-mer exchange is used (Bim 141-166, which is BimS 51-76, replaced by Bad 103-128). The
In turn, B2 showed a Kd of less than 0.2 nM.

In general, Kd refers to the constant that tells how readily two partners part at equilibrium. Lower therefore signals a tighter complex.
